Data: US11834499

Experiments:
[1] = biological target: CD3 on Jurkat cells (UniProt P07766); assay: flow cytometry, Jurkat cells, anti-His secondary; A01 Jurkat-2o alone 1,501.76
[2] = biological target: CD16A (UniProt P08637); assay: flow cytometry; Jurkat Lucia CD16A; only anti-his 2o AF647 652513 7,290.88
[3] = biological target: human Claudin-18.2 (CLDN18.2) (human); assay: flow cytometry; HUPT4 (CLDN18.2+); only anti-his 2o AF647 652513 12,046.33; same construct on ARK2 (CLDN18.2-) 39,787.16 (2o only 36,416.11)
[4] = biological target: CD16A (UniProt P08637); assay: flow cytometry, 2ug/reaction; Jurkat-Lucia-NFAT-CD16 cells; anti-his 2o only 18,863.83
[5] = biological target: human Claudin-18.2 (CLDN18.2) (human); assay: flow cytometry, 2ug/reaction, trypsin to detach cells; HUPT4 cells; anti-his 2o only 12,730.43; same construct on ARK2 cells 37,777.38 (2o only 35,124.48)

CD16A, sequence (P08637 17-254 limits assumed, form in doubt): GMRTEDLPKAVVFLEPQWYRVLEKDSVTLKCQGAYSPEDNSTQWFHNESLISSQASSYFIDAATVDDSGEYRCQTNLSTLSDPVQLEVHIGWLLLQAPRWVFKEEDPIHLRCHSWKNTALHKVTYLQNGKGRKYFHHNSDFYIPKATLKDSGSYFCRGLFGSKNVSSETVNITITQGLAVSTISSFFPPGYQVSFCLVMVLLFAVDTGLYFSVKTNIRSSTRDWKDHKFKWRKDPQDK
CD3 on Jurkat cells, sequence (P07766 23-207 limits assumed): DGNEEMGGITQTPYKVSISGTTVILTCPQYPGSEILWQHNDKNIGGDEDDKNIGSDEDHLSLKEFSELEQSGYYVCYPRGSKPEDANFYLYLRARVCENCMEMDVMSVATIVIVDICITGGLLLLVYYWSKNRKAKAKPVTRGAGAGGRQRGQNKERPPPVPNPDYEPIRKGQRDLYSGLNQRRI

Blincyto-His tag (bispecific antibody)
FL4-H value printed beside the legend [1]: 16300

AFM13 (CD16A-CD30 BiTE) his tagged (bispecific antibody)
flow cytometry signal [2]: 23500
flow cytometry signal [3]: 8940
flow cytometry signal [4]: 76500
flow cytometry signal [5]: 15700
